Test system: MS2 coat protein
Assay: apparent KD of MS2 coat protein; designed switch direction (-1 OFF switch, 1 ON switch): -1; higher = weaker reporter binding
Procedure, shortened: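 Transcription of designed RNA switches on Illumina chips was done by stalled E. coli RNA polymerase. SNAP-549-labelled MS2 coat protein was then titrated in doubling steps from 0.7 or 1.5 nM to 3 µM, with steps of 0.8–1.5 h at the lowest and 10–20 min at the highest concentration. The per-design median over clusters of curve-fitted normalised fluorescence is reported as apparent KD.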

[1] = Eterna round: R95, input ligand: FMN 200 uM
[2] = Eterna round: R95, input ligand: microRNA oligo, concentration not stated
[3] = Eterna round: R95, input ligand: none
[4] = input ligand: microRNA oligo, concentration not stated

Sequence | apparent KD of MS2 coat protein [1] | apparent KD of MS2 coat protein [2] | apparent KD of MS2 coat protein [3] | apparent KD of MS2 coat protein (input ligand: FMN 200 uM) | apparent KD of MS2 coat protein (input ligand: none) | apparent KD of MS2 coat protein [4]
CGGGAGGGACAAGCUUUUUGCACGUCUGUUAUUGAUGCUACAUGAGGAUCACCCAUGUUUAGGGUGUGUGAGGAUGG [JR_SV3TOV2_Sub052] (puzzle: Sensor v3, turn-off variant 2) | 437 nM | 239 nM | 571 nM | – | – | –
CUCUUGUUAGGAUAUCAAACUGGCGGCGGAGCCGGCAGUAGUGAGAAGGGACAUGAGGAUCACCCAUGUAAGAA [Veeder] (puzzle: Exclusion 4) | – | 55.1 nM | – | – | – | –
UCCUGACAUGAGGAUCACCCAUGUUAGGAUAUGACAUUUGGCGCGACAGUGUGGAGUGUUAGAAGGGAUGUGGG [-29.9, -27.2 kcal, A 24%] (Eterna round: R97, puzzle: Exclusion 1) | – | – | – | 18.3 nM | 16.5 nM | –
CUGUUUUCCGCAGGAUAUGCUCCUCCAUUAUUAGCAGAAGGGCGUUGAACAUGAGGAUCACCCAUGUAUGUAAUUGAUUAUUGC [JR_ExcNG1_Sub071] (Eterna round: R96, puzzle: Exclusion NG 1) | – | – | – | 54.3 nM | 36.3 nM | 26.3 nM
CCCAUGUCAGGAUAUUAAUUGAGCAGAAAGCCCUGUUCACUUGAGAAGGGACAUGAGGAUCACCCAUGUAAAAC [Belexeedte] (Eterna round: R97, puzzle: Exclusion 4) | – | – | – | 19.2 nM | 507 nM | –
AUACCAUGCCGCCUAAUAGCUUUUUGCUCGUCUUAUAAAACAUGAGGAUCACCCAUGUAAAACAUGUGGCGUGACCC [Maridi] (Eterna round: R96, puzzle: Sensor v3, turn-off variant 2) | – | – | – | 422 nM | 329 nM | 52.9 nM
UAAAACAGAGGAUAUCGCUUGGUAAACAUGAGGAUCACCCAUGUGGUCUCGGUGGAUACCCGAGAAGGCUGAGCGU [Xeraisbece] (Eterna round: R97, puzzle: Exclusion 5) | – | – | – | 19.5 nM | 19 nM | –
UUUAAUUUUUUUUUUUUACAAGCUUUUUGCUCGUCUUAUACAUGAGGAUCACCCAUGUGGAUGGGAAAUGAAUUAUC [JMF 97] (puzzle: Sensor v3, turn-off variant 2) | 18.6 nM | 115 nM | 19.7 nM | – | – | –
UAUCGGGACUGAGGAUAUUCGUUCGAACACGAAGAAGAAGGUAGUGUCAGGGACAUGAGGAUCACCCAUGUGAUUUCAGUCCUA [JL ViennaUCT Erinle mod 3] (Eterna round: R96, puzzle: Exclusion NG 1) | – | – | – | 149 nM | 165 nM | 102 nM
CAUGAUCUUCGGAUCAUGGACAUGAGGAUCACCCAUGUCACGAGCAGAUCCUCAUGCAAGCUUUUUGCUCGUCUUAU [Sensor v3 - Turn-off variant 1 - 35] (puzzle: Sensor v3, turn-off variant 1) | 62.9 nM | 8.73 nM | 85.2 nM | – | – | –
AGCGCAUGAGGAUAUACAUGAGGAUCACCCAUGUUCCAGUGAGCACUAGUGAGAGUCAGUAGAAGGUAUAGGGC [Cecete] (Eterna round: R97, puzzle: Exclusion 3) | – | – | – | 151 nM | 172 nM | –
AGAUGUAGAUACCGAUCCUACAUGAGGAUCACCCAUGUAGCUAGACGUGCACGCGUAGCUCGUCAGACUACCAGUAG [salish99_TOv1_r3_086] (puzzle: Sensor v3, turn-off variant 1) | 372 nM | 336 nM | 363 nM | – | – | –
CAGUACUGAGGAUAUACAUGAGGAUCACCCAUGUGUUCCAGCUAGGUAACUAGCAAAAGUAGAAGGCAGUACUG [salish99_ex3_r3_096x] (puzzle: Exclusion 3) | – | 25.7 nM | – | – | – | –
AGAUAGUGCUGAGGAUAUCAGAAUAGAAAGAAAUGAGAAGGCGGACAUGAGGAUCACCCAUGUGAGGUCUUGAGACUACAUGGU [Prohibition 38 - Jieux - Exclusion NG 1] (Eterna round: R96, puzzle: Exclusion NG 1) | – | – | – | 210 nM | 77.3 nM | 65.8 nM
AAGUACUACAAGCUUCGGGACAUGAGGAUCACCCAUGUUCGUCUUAUUGAUCUAGGUACGCUGACGUACCUAGAUCU [Mat - Sensor v3 - turn-off var 1 - JL Mod - D11] (puzzle: Sensor v3, turn-off variant 1) | 14.1 nM | 39.2 nM | 14.2 nM | – | – | –
AAUAACAGAGGAUAUACUGUUUUAUGUGUUUGUUAUUUUAAACAUGAGGAUCACCCAUGUAGAAGGCUGAGUAA [JMF 30] (puzzle: Exclusion 2) | – | 25 nM | – | – | – | –
GGUUGGCGAGGAUAUACAUGAGGAUCACCCAUGUGGUCCUGAAAAAAAAAAAACCUUUGUAGAAGGCGCGGGUC [salish99_ex3_r4_035] (Eterna round: R97, puzzle: Exclusion 3) | – | – | – | 256 nM | 150 nM | –
AGUUGGCGAGGAUAUACAUGAGGAUCACCCAUGUGAGAGAAAAAAGUGAGGAAGAAAAGUAGAAGGCGCUGACC [salish99_ex3_r3_041] (puzzle: Exclusion 3) | 245 nM | 49.8 nM | 81.8 nM | – | – | –
CAAACACUGGUCCAAGCACACAUGAGGAUCACCCAUGUCGCCACAUAGGCGCCGGGAAUUAAGCUUCCGUUCGUCUG [Eternabot (L2) Solution 14] (Eterna round: R97, puzzle: Sensor, turn-off variant 1) | – | – | – | 113 nM | 150 nM | –
GCAUUGAGUGUGAGGAUAUGCUGGUCGUAAGAUCAGCAGAAGGCACAUGAGGAUCACCCAUGUGAAAACAAUGC [Mat - Exclusion 4 - JL Mod - D67] (puzzle: Brourd's mod of Exclusion 4) | 125 nM | 23 nM | 23.4 nM | – | – | –
UUGUUAUGUGUAGGAUAUGCGUGUUAUUAUUAUGCAGAAGGACAUGAGGAUCACCCAUGUGUAUUAUUAUUAUAUAUUAUAUAU [Title] (Eterna round: R96, puzzle: Exclusion NG 1) | – | – | – | 20 nM | 19.9 nM | 15.8 nM

Reference: the supplement of paper PMC9170038
